The values below are quoted from earlier work in PMC2803043.

In general, Kd refers to the constant that tells how readily two partners part at equilibrium.

For the series, the target named is Frizzled (Drosophila melanogaster) (UniProt P18537).
Sequence of UniProt P18537 (P18537 19-581): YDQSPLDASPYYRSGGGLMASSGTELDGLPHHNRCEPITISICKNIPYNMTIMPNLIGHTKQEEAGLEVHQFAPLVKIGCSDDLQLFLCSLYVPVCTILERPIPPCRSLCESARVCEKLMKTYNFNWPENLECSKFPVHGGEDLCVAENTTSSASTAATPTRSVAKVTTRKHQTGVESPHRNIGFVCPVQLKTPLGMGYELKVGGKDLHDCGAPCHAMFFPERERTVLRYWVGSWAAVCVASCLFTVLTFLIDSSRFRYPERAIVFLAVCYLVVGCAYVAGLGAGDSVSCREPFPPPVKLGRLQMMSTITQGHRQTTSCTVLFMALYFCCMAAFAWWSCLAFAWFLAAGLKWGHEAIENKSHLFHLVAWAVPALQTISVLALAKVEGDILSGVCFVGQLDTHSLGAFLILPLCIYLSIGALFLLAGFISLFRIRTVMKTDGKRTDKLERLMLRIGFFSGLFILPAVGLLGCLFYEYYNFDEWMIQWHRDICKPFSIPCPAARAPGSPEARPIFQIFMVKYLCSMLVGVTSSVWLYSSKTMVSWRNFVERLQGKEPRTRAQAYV

Regarding Dishevelled PDZ (from UniProt P51140), the Kd is 10 µM.
